The series can be described thus: soluble on expression in E. coli; label from the status in PepcDB or PDB records.
In the case of “VDEPESMVNLAFVKNDSYEKGPDSVVVHVYVKEICRDTSRVLFREQDFTLIFQTRDGNFLRLHPGCGPHTTFRWQVKLRNLIEPEQCTFCFTASRIDICLRKRQSQRWGGLEAPAARVGGA”, the “soluble on expression in E. coli” value is listed as “soluble”.

In the case of “MGSDKIHHHHHHMHKTRYNALSVAFQISPRGPLLIKAGGISANPTLPDMQFVRTYHPYYGYTVYIPGSSLKGVVRGFVEKALRTLDDHTSWQWACPTFPDEDESCAKKLGKEENSATIYKNSCGACRLFGHTRLKGRVAFTDLLPVDEVKTEIRYGVAISRLSHAVAHGPFEMEVAVAGTFEGYLILENFELWQLGLLVLAFQGMNSGLLQIGFGKNRGFGEVAVQVQEARLDEVTSGMEIGLWRGLADFVSDEEKTRYGLSTTFTLNGMPDPLRTEPLGLYTRRIYDPKRWDEVAQRVTDKLGTT”, the “soluble on expression in E. coli” value is “not soluble”.

Turning to “MINIHRFVQNRFLRTRHAHPFGIVLDIDGVLFRGRNMLPRVKEAFSLITDKKGNFVVPTVFLTNGTNSTEKNKAAQLSEQLGFRVPADNVLMSHSPLRMFTDLHDKQVLVVGQKNARAIAKGIIFFRVGFKKVTTIDHLVKWFPHLDCTDFSRKLVDPKETEAARKRFRPIEAIVMLGEPLKWETSLQLMLDCVLTYGKMDTMVFPLIAGGRRPDHIPIVACNVDLVWMADVASQLPRIGHGTFIHILDSLYEKLTGQHLQFRATLGKPTEVSYLHAAHRIQRQAKAMKLEDVKYVYVIGDNPMSDVLGARLFDRYLRHGGVGRFDHLDLEAFDVNDGEKPRVRTRNVVERCISILVETGVHQDHVHINGMVKPISALIDNLSKGEQLKLQLPDFVEYDLHAAIRTILRRECYR”, the “soluble on expression in E. coli” value was “not soluble”.

Consider “MGSDKIHHHHHHMVSIIDFYVLQKRPSNGGGFDIAIGNPPYISAPTQIASPELNEQRQRIVASKKYKSLNEKWDLYVPFMELGMQLLCPNGVFSMIVPYPLTNQKYGKKLRKMIVEEYRLLEIADLNGTKIFENATVSNCIPFIQNSQPEGELRITQIFEDKTIREVLSKSPKALKLDKKNYVWNLTEEERTGNRFANMNVLGDFCYISVGMVVNANEKDAQGAFKKEDLISDTYDAIHCRKYIEAKDIDKFQVKRVRYLEWNTERCPEKLRRPTFRELYDRPKLIMNCLGTINVTIDAEEHFLHNHSIYCAILWKDLKDVSNKSISSSVKKFSKHNREAMESLSEKVDLYYLLGILNSSMADQLLTDQRGGDYHIYPEHIRNLPIPVPQREIQNAIGEIAKQILLIRETNTDYSELEEQLNNLVEALYQ”, for which the “soluble on expression in E. coli” value is given as “not soluble”.

“STVLIVSQEHQKIKTYINTVADRGVTEIPVKGGYSGTNQIMLMTTIAGYEFAKLQEAIAEIDETAFITVTPTSQASGRGFSLQKNHGRLDEDILMPM”: the “soluble on expression in E. coli” value is on record as “not soluble”.

On to “MGSSHHHHHHSSGLVIRGSHMRIALMQHTARPLDPQHNLDLIDDAAARASEQGAQLLLTPELFGFGYVPSQICAQVSAEQVDAARSRLRGIARDRGIALVWSLPGPEGPEQRGITAELADEHGEVLASYQKVQLYGPEEKAAFVPGEQPPPVLSWGGRQLSLLVCYDVEFPEMVRAAAARGAQLVLVPTALAGDETSVPGILLPARAVENGITLAYANHCGPEGGLVFDGGSVVVGPAGQPLGELGVEPGLLVVDLPDQSQDAGSDSADYLQDRRAELHRNWL”, for which the “soluble on expression in E. coli” value is listed as “soluble”.

As to “MLRKADIKDLNACLSLFEQSVKTLCAKDYTKDQICAWIKIDRQQWEEKFKYDEIFVYEKRGKIASFISVKQEQKLLDLLFTHPDFVRQGLAQNLLDFILKTYLHNEIYTFASLSAKDFFLKNGFELIRENKVIKEGQNLKKILMKKDVIYKN”, the “soluble on expression in E. coli” value is given as “not soluble”.

Regarding “MSLTEKFRPTLKDVARQAGVSIATASRALADNPAVAASTRERIQQLASDLGYRANAQARALRSSRSNTIGVIVPSLINHYFAAMVTEIQSTASKAGLATIITNSNEDATTMSGSLEFLTSHGVDGIICVPNEECANQLEDLQKQGMPVVLVDRELPGDSTIPTATSNPQPGIAAAVELLAHNNALPIGYLSGPMDTSTGRERLEDFKAACANSKIGEQLVFLGGYEQSVGFEGATKLLDQGAKTLFAGDSMMTIGVIEACHKAGLVIGKDVSVIGFDTHPLFALQPHPLTVIDQNVEQLAQRAVSILTELIAGTVPSVTKTTIPTALIHRESIINSTLRKEGHHHHHH”, the “soluble on expression in E. coli” value is on record as “soluble”.

In the case of “MGSDKIHHHHHHMPTLNQPQARFLALPHKFRAFVAGFGSGKTWVGGAGLCRHAWEFPRVNSGYFAPTYGQIRDIFYPTIEEVAHDWGLAAKINESNKEVHLFAGRKYRGTVICRSMEKPGDIVGFKIGKGLIDELDVMKADKAALAWRKIIARLRHTAPGLLNGVDVTTTPEGFKFVYQQFVKQVRERPELAALYGLVQASTYENGKNLPEDYIPSLRASYPPQLIAAYLRGQFTNLTSGSVYANFDRRLHHTDAAEEPHEELHIGMDFNVLNMTATVNVIRAGLPLTVGELTKVRDTPEMARMLKERFKDKGHGVTIYPDASGGNTSSKNASESDLSILRKAGFTVRVNSRNPSVKDRINAVNGMLLNDEGARRWLVNTDRCPTLTEALEQQVYDKNGEPDKSTGHDHPNDAQGYFLVHRYPITPTGMSRIKLTGT”, the “soluble on expression in E. coli” value is “not soluble”.

On to “MVKCLSAHNKAPHVSVITPSYNSRRFIGETILSVQNQSYENWEMIIVDDCSTDQSAAKIKEIIEGDSRIRLLSLKENVGAAKARNLAIREARGRYIAFLDSDDIWLPHKLKTQLLFMEEMNIAFSYASYSLIDENGNELNREVSVPKSVDYHYLVGNTIIGCLTVMIDREKIPYVEMPSVQPEDTALWLNLLHEGHEAKGIQQVLAKYRIVANSVSSNKVRAAFRYWKLLRDQKSLNAVQSFYYFSKYAYHAYKKNKINVVGKTQLLEHHHHHH”, for which the “soluble on expression in E. coli” value is “not soluble”.

Take “GSEAWMNFYLEEFNLSIPDSGPYGITSSEDGKVWFTQHKANKISSLDQSGRIKEFEVPTPDAKVMCLIVSSLGDIWFTENGANKIGKLSKKGGFTEYPLPQPDSGPYGITEGLNGDIWFTQLNGDRIGKLTADGTIYEYDLPNKGSYPAFITLGSDNALWFTENQNNSIGRITNTGKLEEYPLPTNAAAPVGITSGNDGALWFVEIMGNKIGRITTTGEISEYDIPTPNARPHAITAGKNSEIWFTEWGANQIGRITNDNTIQEYQLQTENAEPHGITFGKDGSVWFALKCKIGKLNLNE”: the “soluble on expression in E. coli” value is on record as “soluble”.

Regarding “CGSSSHETSYGYATLSYADYWAGELGQSRDVLLAGNAEADRAGDLDAGMFDAVSRATHGHGAFRQQFQYAVEVLGEKVLSKQETEDSRGRKKWEYETDPSVTKMVRASASFQDLGEDGEIKFEAVEGAVALADRASSFMVDSEEYKITNVKVHGMKFVPVAVPHELKGIAKEKFHFVEDSRVTENTNGLKTMLTEDSFSARKVSSMESPHDLVVDTVGTGYHSRFGSDAEASVMLKRADGSELSHREFIDYVMNFNTVRYDYYGDDASYTNLMASYGTKHSADSWWKTGRVPRISCGINYGFDRFKGSGPGYYRLTLIANGYRDVVADVRFLPKYEGNIDIGLKGKVLTIGGADAETLMDAAVDVFADGQPKLVSDQAVSLGQNVLSADFTPGTEYTVEVRFKEFGSVRAKVVAQ”, the “soluble on expression in E. coli” value is “soluble”.

On to “GPGSMVTPEQAALIEGAFRSMDRDGTGLVRLEDIFRVFDDSRHPRVRDGELAPAATRDMLMHQFGATAQAHGGVSFDVFMRFHERMAEDAAVAKVNDKELFLTDTIIGVWRLGTLLQPTLIRPLFPVNVRPSGLYATQYMSLVWVDEVAGPGSFVVHVVRDVVRPIFSRGDLPPQLRGMFAYPTELAGMKIIEERLQIATQRWLDFVWEYEEGKHAAVPGIISARVDPDTLPQYLRDMIVEHDVAKAIPSLFFVPTSVAVNPMYKRSSEEYGYGVPEEVKRMSRWKDLTYSGQACGLIYHGRVGKFTRERLNAPVQDVASAMNI”, for which the “soluble on expression in E. coli” value is given as “not soluble”.

Take “MGDIMLIILTGLPGVGKSTFSKNLAKILSKNNIDVIVLGSDLIRESFPVWKEKYEEFIKKSTYRLIDSALKNYWVIVDDTNYYNSMRRDLINIAKKYNKNYAIIYLKASLDVLIRRNIERGEKIPNEVIKKMYEKFDEPGKKYKWDEPFLIIDTTKDIDFNEIAKKLIEKSKEIPKFYVLEENKNKNNNISDKIDKETRKIVSEYIKSKKLDKDKIKEVVELRKEFLKKIKKMEEVDADRVLKEFKDLLNSYLEHHHHHH”: the “soluble on expression in E. coli” value was “soluble”.

Consider “MLLDVQHGQFGFIKGGIIAVIWFSLSRTINCGQLNLECFEFWLPTSQLLVLDVCLFDAFALEHHHHHH”, for which the “soluble on expression in E. coli” value is reported as “not soluble”.

The values are drawn from the DeepSol protein solubility set.
